Here are results for one sequence from article PMC11582362.

This data set has as its system chimeric ADAR1-dsRBD3/Xlrbpa-dsRBD2 (Homo sapiens / Xenopus laevis?). Nature of the data set: ITC. The settings on record: N = 3.05 ± 0.31; ITC: 25 mM Na-phosphate pH 7.0, 100 mM NaCl, 2 mM 2-mercaptoethanol, 25 °C; 2.25 uM dsRNA in cell, 80 uM protein in syringe.

As a reminder, the Kd is the constant that tells how readily two partners part at equilibrium. Read a high Kd as lower affinity.

The sequence “GGGAUCAAUAUGCUAAGCGAUCCC / GGGAUCGCUUAGCAUAUUGAUCCC [24 bp dsRNA duplex]” showed a Kd of 500 nM. In other words, the sub-micromolar range.
